Here are results for two molecules from PMC11201974, “Structural Insights into the Rrp4 Subunit from the Crystal Structure of the Thermoplasma acidophilum Exosome” (Biomolecules, 2024).

As usually defined, the Kd is a measure of binding affinity in units of concentration. A higher Kd goes with a looser complex.

Sequences and labels used below:
T1: Thermoplasma acidophilum exosome subunit Rrp41 (TaciRrp41) (Thermoplasma acidophilum, UniProt Q9HIP2 1-248)
T1 construct: Exosome complex component Rrp41 of Thermoplasma acidophilum; Single subunit (pET22b) used as ligand in MST; in the crystals the chain came from the pETDuet-1 co-expression with TaciRrp42; source: E. coli BL21 (DE3), from pET22b alone or from pETDuet-1 co-expressed with TaciRrp42; purified (Ni-NTA, Superdex 200)
T1 sequence: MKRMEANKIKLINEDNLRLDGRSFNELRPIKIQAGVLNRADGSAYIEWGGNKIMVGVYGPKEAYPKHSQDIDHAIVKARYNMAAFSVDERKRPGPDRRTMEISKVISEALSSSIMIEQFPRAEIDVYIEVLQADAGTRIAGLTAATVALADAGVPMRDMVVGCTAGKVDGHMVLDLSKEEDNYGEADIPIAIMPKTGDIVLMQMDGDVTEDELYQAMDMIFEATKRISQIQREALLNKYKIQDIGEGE

T2: TaciRrp41:42 complex (Thermoplasma acidophilum exosome core, Rrp41 with truncated Rrp42) (Thermoplasma acidophilum, UniProt Q9HIP2 1-248; Q9HIP1 20-240)
T2 construct: Exosome complex component Rrp41 of Thermoplasma acidophilum; as the chain of m1; Exosome complex component Rrp42 of Thermoplasma acidophilum, truncated core domain of residues 20-240; as the chain of m2; The complex was purified on Ni-NTA and labelled with the His-tag labelling kit (RED-tris-NTA) for MST; the oligomeric state in the MST sample was not measured; also called TaciRrp41/cd-TaciRrp42; …
T2 sequence 1: T1 sequence
T2 sequence 2: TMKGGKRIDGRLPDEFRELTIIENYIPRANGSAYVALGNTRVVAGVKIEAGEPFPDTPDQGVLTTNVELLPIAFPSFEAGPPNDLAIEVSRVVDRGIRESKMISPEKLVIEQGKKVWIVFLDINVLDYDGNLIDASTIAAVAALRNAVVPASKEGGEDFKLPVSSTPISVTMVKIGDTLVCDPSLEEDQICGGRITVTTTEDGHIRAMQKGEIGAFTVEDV

B1: Thermoplasma acidophilum exosome subunit Rrp42, truncated core domain, residues 20-240 (TaciRrp42) (domain or fragment, UniProt Q9HIP1 20-240, looked up)
chain: T2 sequence 2
modifications: RED-tris-NTA fluorescent dye on the His tag (in MST)
notes: Exosome complex component Rrp42 of Thermoplasma acidophilum, truncated Rrp42 corresponding to the core domain composed of residues 20-240; Single subunit (pET28a) was the labelled target in MST; in the crystals the chain came from the pETDuet-1 co-expression; also called cd-TaciRrp42; source: E. coli BL21 (DE3), from pET28a alone or from pETDuet-1 co-expressed with TaciRrp41; purified (Ni-NTA, …)
B2: Thermoplasma acidophilum exosome subunit Rrp4 (TaciRrp4) (natural protein, UniProt Q9HIP3 1-236, looked up)
chain: MYQLGDVKKIVLPGDPIEVQGKMRNGVYRGQDNRYYSEYFGTLQVNDQFVDVVPFSGQYIPRKGDKVIGKVIEVGPSTWTVDINSPYFAMLHMNDTPWRMSSGDLKRYLNAGDYIYAKIMSVNEIKESWLTLKEPGLKKLEGGHMVLIHASRVPRVIGKGGGMVNMVKELTATRIIIGQNGLIWIDGPIEGVTMAIAAIEMIEREAHTEGLTARVESFLKELKGEKDGSQQNKADQ
notes: Exosome complex component Rrp4 of Thermoplasma acidophilum (N-terminal domain, S1 domain, KH domain); also called TaciRrp4-capping protein; source: E. coli Rosetta, from pET22b; purified (Ni-NTA, Superdex 200)

What all share (assay): MST; target (TaciRrp42 or TaciRrp41:42) labelled by RED-tris-NTA His-tag kit, 50 nM; ligand in sixteen serial dilutions (TaciRrp41 550 μM to 16.6 nM; TaciRrp4 200 μM to 6.1 nM); 30 min incubation; LED power and MST power 40%; triplicate
What all share (settings): both partners purified

In assay [1] the target is T1, Thermoplasma acidophilum exosome ….
Assay [2] addresses B2.
In assay [3] the target is T2, TaciRrp41:42 complex (Thermoplasma …).

With B1, the dissociation constant (Kd) came out at 169 µM in assay [1] and 4.82 µM in assay [2].

Turning to B2, binding in assay [3] was characterised by a dissociation constant (Kd) of 200 µM.
